What all share (settings): EMSA: 10 mM Tris-HCl pH 7.5, 50 mM NaCl, 1 mM EDTA, 5% glycerol, 1 mg/mL BSA, 1 mM DTT; 30 min, room temperature; 6% native PAGE, 0.5x TBE
A general note: In EMSA bound probe runs differently from free probe, usually more slowly.

Series [1] deals with T1, HDIP1-c (Arabidopsis thaliana) (UniProt F4I0M4).
T1 sequence: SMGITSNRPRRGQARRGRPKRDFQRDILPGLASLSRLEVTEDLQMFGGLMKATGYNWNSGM
The series is described as follows: EMSA.

In series [2] the target is T1, HDIP1-c (Arabidopsis thaliana). The series is described as follows: competition.
Series [3] has as its target T2, HDIP1-d (Arabidopsis thaliana) (UniProt F4I0M4).
T2 sequence: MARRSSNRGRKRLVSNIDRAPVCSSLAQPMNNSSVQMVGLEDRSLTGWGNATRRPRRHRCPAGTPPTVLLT
Description: EMSA.

Series [4] deals with T3, HDIP3-DBD (Arabidopsis thaliana) (UniProt Q9LMG4).
T3 sequence: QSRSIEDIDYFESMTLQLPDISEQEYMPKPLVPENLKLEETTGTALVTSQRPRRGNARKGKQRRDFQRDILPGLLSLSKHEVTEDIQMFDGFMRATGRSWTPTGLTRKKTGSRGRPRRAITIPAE
Description: EMSA.

Series [5] addresses T4, HDIP1-b (Arabidopsis thaliana) (UniProt F4I0M4).
T4 sequence: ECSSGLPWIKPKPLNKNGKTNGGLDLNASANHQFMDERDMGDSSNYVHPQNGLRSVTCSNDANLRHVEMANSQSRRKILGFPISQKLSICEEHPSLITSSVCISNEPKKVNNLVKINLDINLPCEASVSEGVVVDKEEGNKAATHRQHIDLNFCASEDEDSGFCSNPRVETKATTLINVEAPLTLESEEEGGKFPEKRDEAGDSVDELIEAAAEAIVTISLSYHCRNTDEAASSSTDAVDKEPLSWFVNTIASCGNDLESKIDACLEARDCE
Description: EMSA.

The target in series [6] is T5, HDIP1-a (Arabidopsis thaliana) (UniProt F4I0M4).
T5 sequence: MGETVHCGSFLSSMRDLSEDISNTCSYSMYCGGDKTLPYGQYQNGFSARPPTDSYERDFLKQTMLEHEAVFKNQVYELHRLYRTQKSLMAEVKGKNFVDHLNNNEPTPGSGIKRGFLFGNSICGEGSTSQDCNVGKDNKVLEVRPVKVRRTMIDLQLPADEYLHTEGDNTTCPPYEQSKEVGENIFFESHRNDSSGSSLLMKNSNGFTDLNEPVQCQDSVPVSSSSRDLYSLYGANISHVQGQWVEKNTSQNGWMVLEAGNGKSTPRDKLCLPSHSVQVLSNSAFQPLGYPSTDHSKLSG
Description: EMSA.

On to “CCACTCCACATAGCTACGTCACTTAAAGTCCCATAGTAACTAATTTTCTTTGAATGTTATAGCAAATTATTAGCAATGTATGATTCTTTGGGTCAAATCTTACACTAAAAACATGAAAATAATTTGAATATCAAGAGATTCATATATTCATATTTTATAACCAAAATATGTAGGGTCTAAATTATTGCTTCTTGACTAGG (double strand) [P2 (200 bp)]”, for which, in series [1], the binding entry is “binds”.

Take “TGTGAAGAATGCAGTAAGAGGCAGTCAAAGATTCAAAGGGAAAAAAGTTTACGAAAACAAAAGATTATATTTTGGGAGTATTAGGCTGCCACGTGGAAACACTTGCACCGGCATTTGACCGTCGCCGACACATGACCTGGCACGTGCTAGAGACTGTCTTCTCTTCTTCTTCTTCTTTTTCCCTCACTGTTTCACGAACC (double strand) [P1 (200 bp)]”: the binding result is “binds” in series [2]; “binds” in series [1]; “no binding” in series [3]; “binds” in series [4]; “no binding” in series [5]; “no binding” in series [6].

For the sequence “TTCCTAAGAGGTCTAGATTGGTGCTTGGACTTTAATTTGGTCTTCGTCTCTCGTTCTCGTATTTATGCATTTTGAAACTCAAAAAAGGAAGAGAGAGAAGAATAATATGATTTTGGCTACTTGGTTTGGAAATAAGTTAATTAAGTAAAAGTGTATTGAGATATAATTCAATGGTACGTGTGTGAATCCAAAGTCGTGTT (double strand) [P3 (200 bp)]”, the binding result in series [1] is “binds”.

For the origin of these results see publication PMC12170880.
